Test results taken from the supplement of paper PMC7877785.
± gives the uncertainty stated by the source.

Assay: self-splicing fitness, log relative to wild type (ln ratio); higher = more splicing; Tetrahymena group I intron in knt gene, E. coli kanamycin selection, DiMSum; sequences stand for … in CUCUCU…GGAGGGAAAAGUUAUCAGGCAUGCACCUGGUAGCUAGUCUUUAAACCAAUAGAUUGCAUCGGUUUAAAAGGCAAGACCGUCAAAUUGCGGGAAAGGGGUCAACAGCCGUUCAGUACCAAGUCUCAGGGGAAACUUUGAGAUGGCCUUGCAAAGGGUAUGGUAAUAAGCUGACGGACAUGGUCCUAACCACGCAGCCAAGUCCUAAGUCAACAGAUCUUCUGUUGAUAUGGAUGCAGUUCACAGACUAAAUGUCGGUCGGGGAAGAUGUAUUCUUCUCAUAAGAUAUAGUCGGACCUCUCCUUAAUGGGAGCUAGCGGAUGAAGUGAUGCAACACUGGAGCCGCUGGGAACUAAUUUGUAUGCGAAAGUAUAUUGAUUAGUUUUGGAGUACUCGUGGUCG
Summary of the method: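 Pooled colonies went to amplicon sequencing on an Illumina HiSeq 2500 after six replicate transformations. The plates were LB agar with 100 μg/mL carbenicillin, 50 μM IPTG and 0.2% rhamnose, with or without 25 μg/mL kanamycin, incubated overnight at 37°C or 30°C. The E. coli BL21(DE3) library had all eight P1ex-region intron nucleotides randomised, the intron placed in the knt kanamycin-resistance gene on pET-22b(+). DiMSum fitness is the error-weighted combination of replicate fold changes, kanamycin against none, normalised to wild type.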

Sequence | self-splicing fitness (ln) (30 °C) | self-splicing fitness (ln) (37 °C)
UGUUAGCAAUAUUACGAUUC | -2.39 ± 0.18 | -0.83 ± 0.18
UAAUAGCAAUAUUACGUCUG | -0.694 ± 0.075 | -0.276 ± 0.089
UAGCAGCAAUAUUACGAUAC | -4.05 ± 0.4 | -2.2 ± 0.33
ACCAAGCAAUAUUACGGGGG | -2.15 ± 0.096 | -2.29 ± 0.14
AUCCAGCAAUAUUACGCCGU | -0.864 ± 0.096 | -0.133 ± 0.12
GUGGAGCAAUAUUACGUCUG |  | -1.75 ± 0.32
CCAAAGCAAUAUUACGCAUG | -1.22 ± 0.063 | -0.772 ± 0.084
CACCAGCAAUAUUACGACAG | 0.251 ± 0.06 | 0.634 ± 0.083
UUGAAGCAAUAUUACGAUCG | -0.0761 ± 0.14 | 0.264 ± 0.19
UCUCAGCAAUAUUACGAUAC | -1.92 ± 0.28 | -2.46 ± 0.45
GCUUAGCAAUAUUACGUAGC | -3.12 ± 0.26 | -1.75 ± 0.26
CUAUAGCAAUAUUACGUGCC | -2.54 ± 0.32 | 
UUCAAGCAAUAUUACGUUGA | -2.77 ± 0.21 | -2.7 ± 0.21
GGAAAGCAAUAUUACGAGUG | -3.38 ± 0.12 | -1.85 ± 0.1
AACAAGCAAUAUUACGCCGG | -0.692 ± 0.075 | -0.963 ± 0.12
GUAGAGCAAUAUUACGUGCU |  | -1.29 ± 0.39
UCCAAGCAAUAUUACGAGCG | -1.96 ± 0.081 | -0.978 ± 0.099
AUUCAGCAAUAUUACGUGCG | -0.448 ± 0.095 | -0.262 ± 0.13
CAAUAGCAAUAUUACGCUAU | -2.69 ± 0.33 | 
ACUGAGCAAUAUUACGAUUA | -3.39 ± 0.3 | -1.78 ± 0.18
AGUCAGCAAUAUUACGCAAG | -2.69 ± 0.26 | -1.28 ± 0.29
UAUUAGCAAUAUUACGACAC | -1.54 ± 0.14 | -1.92 ± 0.21
GUUGAGCAAUAUUACGGGCC | -3.53 ± 0.5 | -1.82 ± 0.39
AGCAAGCAAUAUUACGGCAA | -0.272 ± 0.069 | -0.342 ± 0.086
UCGUAGCAAUAUUACGCCCU | -1 ± 0.25 | -0.827 ± 0.34

Sequence | self-splicing fitness (ln) (30 °C) | self-splicing fitness (ln) (37 °C)
CUGUAGCAAUAUUACGUCAG | -3.53 ± 0.23 | -2.88 ± 0.34
GCCGAGCAAUAUUACGAGUU | -1.62 ± 0.12 | -0.709 ± 0.15
GAACAGCAAUAUUACGUUCC | -2.88 ± 0.36 | 
CAUAAGCAAUAUUACGAGCA | -3.98 ± 0.37 | -1.77 ± 0.2
UGCCAGCAAUAUUACGAGGU | -3.06 ± 0.13 | -3.99 ± 0.3
GGUCAGCAAUAUUACGUUUA | -1.23 ± 0.1 | -0.167 ± 0.1
CGCGAGCAAUAUUACGUGGA | -2.79 ± 0.16 | -3.01 ± 0.34
GCGCAGCAAUAUUACGGUGU | -2.83 ± 0.14 | -2.47 ± 0.17
ACUAAGCAAUAUUACGACUU | -0.429 ± 0.093 | 0.924 ± 0.12
AGAAAGCAAUAUUACGUGGC | -3.67 ± 0.3 | -1.14 ± 0.19
GCCUAGCAAUAUUACGCUUG | -2.37 ± 0.17 | -1.96 ± 0.26
CCGCAGCAAUAUUACGUAAU | -3.78 ± 0.15 | -2.3 ± 0.19
CCGUAGCAAUAUUACGGACA | -1.88 ± 0.35 | 
UGGUAGCAAUAUUACGAGUG | -1.17 ± 0.13 | -0.313 ± 0.16
UAGUAGCAAUAUUACGAUAA | -3.02 ± 0.36 | -1.18 ± 0.2
ACUCAGCAAUAUUACGUCAG | -2.31 ± 0.1 | -2.68 ± 0.17
AAAAAGCAAUAUUACGGGAU | -1.62 ± 0.075 | -1.23 ± 0.086
ACCCAGCAAUAUUACGAGUG | -1.74 ± 0.054 | -0.755 ± 0.058
UGACAGCAAUAUUACGCCAU | -3.25 ± 0.29 | -1.51 ± 0.26
AAUGAGCAAUAUUACGACGG | -3.86 ± 0.19 | -2.3 ± 0.21
CAGUAGCAAUAUUACGUAGU | -2.5 ± 0.13 | -2.54 ± 0.18
GUGUAGCAAUAUUACGCUAC | -2.35 ± 0.49 | 
GAGUAGCAAUAUUACGAGGC |  | -2.86 ± 0.44
CGGCAGCAAUAUUACGUCGC |  | -0.603 ± 0.28
UAUAAGCAAUAUUACGCGAA | -1.09 ± 0.15 | -0.98 ± 0.16

Sequence | self-splicing fitness (ln) (30 °C) | self-splicing fitness (ln) (37 °C)
UACAAGCAAUAUUACGUAGG | -4 ± 0.26 | -2.78 ± 0.27
UAUGAGCAAUAUUACGGCUU |  | -1.62 ± 0.32
CAGCAGCAAUAUUACGCCAC | -4.15 ± 0.26 | -3.31 ± 0.29
UAUUAGCAAUAUUACGGGGA | -2.39 ± 0.22 | -0.989 ± 0.18
UGUAAGCAAUAUUACGGAAA | -1.83 ± 0.17 | -1.67 ± 0.2
UCCAAGCAAUAUUACGCUGG | -4.72 ± 0.28 | -1.81 ± 0.18
GGGGAGCAAUAUUACGCUAA |  | 0.376 ± 0.38
ACCCAGCAAUAUUACGGGUC | -1.89 ± 0.085 | -2.74 ± 0.19
GCUCAGCAAUAUUACGAAGU | -1.63 ± 0.16 | -0.416 ± 0.15
UGCGAGCAAUAUUACGUGAA |  | -2.32 ± 0.16
CGCCAGCAAUAUUACGUUGU | -3.62 ± 0.14 | -3.07 ± 0.15
AUAAAGCAAUAUUACGGGUU | -2.17 ± 0.09 | -1.17 ± 0.098
UGUUAGCAAUAUUACGCGGC |  | -3.46 ± 0.29
UUAGAGCAAUAUUACGAACG | -0.913 ± 0.22 | -0.303 ± 0.19
GAUGAGCAAUAUUACGUAGG | -3.76 ± 0.27 | -1.79 ± 0.26
AGUAAGCAAUAUUACGUCAU | -2.97 ± 0.23 | -2.12 ± 0.19
AUGUAGCAAUAUUACGGGCA | -0.222 ± 0.11 | 0.141 ± 0.1
GACAAGCAAUAUUACGGUAA | -1.69 ± 0.11 | -0.907 ± 0.11
AGGCAGCAAUAUUACGCGUA | -0.695 ± 0.09 | -0.127 ± 0.095
AACCAGCAAUAUUACGGGCC | -1.4 ± 0.082 | -0.824 ± 0.11
GCUUAGCAAUAUUACGCGUG | -1.74 ± 0.1 | -1.64 ± 0.11
CAGGAGCAAUAUUACGCUGC | -4.3 ± 0.36 | -2.82 ± 0.36
GCCGAGCAAUAUUACGUCAU | -3.5 ± 0.25 | -1.31 ± 0.17
GGGGAGCAAUAUUACGAACG |  | -1.11 ± 0.36
AAUCAGCAAUAUUACGCAAA | -0.0279 ± 0.067 | -0.117 ± 0.078

Sequence | self-splicing fitness (ln) (30 °C) | self-splicing fitness (ln) (37 °C)
ACCGAGCAAUAUUACGCACA | -2.47 ± 0.11 | -1.67 ± 0.11
CGUCAGCAAUAUUACGGUUA | -2.25 ± 0.12 | -0.874 ± 0.091
CUCCAGCAAUAUUACGGGUA | -1.35 ± 0.067 | -1.11 ± 0.08
CGAGAGCAAUAUUACGAUUC | -2.96 ± 0.38 | -1.19 ± 0.29
AUCAAGCAAUAUUACGUCGG | -3.01 ± 0.13 | -1.29 ± 0.12
UCCGAGCAAUAUUACGAGAC | -3.1 ± 0.32 | -2.81 ± 0.4
GUCUAGCAAUAUUACGACUU | -1.32 ± 0.12 | -0.56 ± 0.11
UAUUAGCAAUAUUACGUCAG | -1.84 ± 0.1 | -0.992 ± 0.12
CCACAGCAAUAUUACGCGUA | -2.81 ± 0.18 | -2.41 ± 0.2
AUGAAGCAAUAUUACGUAUU | -1.52 ± 0.081 | -1.23 ± 0.099
UGUAAGCAAUAUUACGCCCU | -0.237 ± 0.19 | -0.575 ± 0.24
GAUAAGCAAUAUUACGCUCC | -1.82 ± 0.34 | 
AGGGAGCAAUAUUACGUGUC | -3.95 ± 0.47 | -2.69 ± 0.26
CCCGAGCAAUAUUACGCUGG | -3.13 ± 0.16 | -2.68 ± 0.26
UCACAGCAAUAUUACGUGCU | -3.75 ± 0.19 | -2.72 ± 0.15
CUAUAGCAAUAUUACGUUGU | -3.77 ± 0.19 | -3.85 ± 0.33
GAGGAGCAAUAUUACGGACU | -1.49 ± 0.14 | -1.22 ± 0.28
CUUUAGCAAUAUUACGUGUU | -3.49 ± 0.18 | -3.77 ± 0.22
UGAUAGCAAUAUUACGCAUU | -2.52 ± 0.17 | -2.11 ± 0.17
GACUAGCAAUAUUACGCUGG | -3.18 ± 0.21 | -2.13 ± 0.25
CUGCAGCAAUAUUACGUCAC | -3.39 ± 0.31 | 
UCGAAGCAAUAUUACGCUUG |  | -2.64 ± 0.26
GAACAGCAAUAUUACGGGAU | -2.26 ± 0.084 | -1.05 ± 0.079
GUCUAGCAAUAUUACGAAAC | -0.862 ± 0.13 | -0.29 ± 0.14
ACACAGCAAUAUUACGCUUU | -2.75 ± 0.14 | -1.51 ± 0.098
